The record followed here is PMC1277818, “Substrate specificity analysis of protein kinase complex Dbf2-Mob1 by peptide library and proteome array screening” (BMC Biochemistry, 2005).

Assay [1] deals with T1, FHHDbf2-H6Mob1TM9 (Saccharomyces cerevisiae, UniProt P22204+P40484).
T1 construct: made in house; host or cells: Hi5 insect cells (baculovirus)
T1 sequence (P22204 1-572): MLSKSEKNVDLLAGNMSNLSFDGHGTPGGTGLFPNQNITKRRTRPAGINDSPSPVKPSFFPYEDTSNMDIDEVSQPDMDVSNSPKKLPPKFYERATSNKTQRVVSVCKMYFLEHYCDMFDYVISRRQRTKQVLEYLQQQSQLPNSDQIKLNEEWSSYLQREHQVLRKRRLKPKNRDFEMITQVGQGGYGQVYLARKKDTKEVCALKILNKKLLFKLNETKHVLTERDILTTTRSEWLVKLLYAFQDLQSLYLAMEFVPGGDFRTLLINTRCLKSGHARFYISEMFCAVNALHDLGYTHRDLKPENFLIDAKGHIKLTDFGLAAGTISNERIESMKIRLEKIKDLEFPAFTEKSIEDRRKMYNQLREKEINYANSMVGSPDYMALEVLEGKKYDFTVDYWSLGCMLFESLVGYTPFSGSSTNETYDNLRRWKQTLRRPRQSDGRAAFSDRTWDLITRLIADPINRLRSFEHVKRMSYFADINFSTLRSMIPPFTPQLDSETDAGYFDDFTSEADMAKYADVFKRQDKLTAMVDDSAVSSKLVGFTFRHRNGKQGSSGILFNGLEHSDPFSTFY
T1 sequence (P40484 1-314 partner): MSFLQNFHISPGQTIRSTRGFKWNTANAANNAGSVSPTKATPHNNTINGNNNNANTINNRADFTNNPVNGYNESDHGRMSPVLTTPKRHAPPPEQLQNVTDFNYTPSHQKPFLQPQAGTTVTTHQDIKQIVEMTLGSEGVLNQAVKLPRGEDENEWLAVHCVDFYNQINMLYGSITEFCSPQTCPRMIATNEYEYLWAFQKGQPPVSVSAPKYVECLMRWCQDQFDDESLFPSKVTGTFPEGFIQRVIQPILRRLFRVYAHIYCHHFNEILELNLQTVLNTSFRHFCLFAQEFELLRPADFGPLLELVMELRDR
Description: Kinase assays of immunoprecipitated TAP-tagged proteins. The assay is classed as biochemical. The note with it: protein on IgG sepharose beads, ~13 ng Dbf2, 2 μCi [γ-32P]ATP, 30 min, room temperature, SDS-PAGE, autoradiography. The procedure: TAP-tagged strains were obtained for 22 of the 25 top candidates. TAP-tagged alleles for three of the genes (YJL108C, YBR285W, and YBR108W) were not available, and therefore these candidates were not subjected to further analysis. Asynchronous cultures of the 22 TAP-tagged strains were grown and the TAP-tagged proteins immunoprecipitated with IgG sepharose and analyzed by Western blotting (Figure 2A). Candidates were determined to be phosphorylated if a radioactive signal was detected at the molecular weight predicted for the tagged protein. […] The 17 TAP-tagged proteins that were expressed and purified were used in Dbf2-Mob1 kinase assays (Figure 2B). Of the 17, 10 were determined to be phosphorylated.
The TAP-tagged proteins were immunoprecipitated with IgG sepharose beads from asynchronous cultures, fractionated on SDS-PAGE and immunoblotted with anti-TAP. […] (B) The TAP-tagged proteins expressed in (A) were treated with ^FHHDbf2-^H6Mob1^TM9 in the presence of [γ-^32P]ATP, fractionated on SDS-PAGE and detected by autoradiography.
Yeast strains containing TAP-tagged genes (Open Biosystems) were grown to OD600 ~2.0 in 25 mL of YPD. […] Immunoprecipitated TAP-tagged proteins were analyzed by SDS-PAGE and detected by Western blotting using the primary antibody anti-TAP (Open Biosystems) followed by goat anti-rabbit horseradish peroxidase (HRP)-conjugate (Bio-Rad), and ECL. […]

The target in assay [2] is T1, FHHDbf2-H6Mob1TM9. In words: Yeast proteome chip assay. Format: biochemical. The note with it: [γ-33P]ATP, chips in duplicate. The essentials: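 GST-tagged yeast proteins (~4,400 strains) spotted on proteome microarrays, probed in duplicate with FHHDbf2-H6Mob1TM9 in DKB plus [γ-33P]ATP; kinase-dead Dbf2(N305A) and kinase-free buffer served as controls. Positives: 3 of 4 spots ≥2 SD above background, fourth ≥1.5 SD.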

Assay [3] deals with kinase-inactive FHHDbf2(N305A)-H6Mob1TM9. Description: Kinase assays of immunoprecipitated TAP-tagged proteins with the kinase-inactive complex. The assay is classed as biochemical, Saccharomyces cerevisiae. The note with it: protein on IgG sepharose beads, ~13 ng Dbf2, 2 μCi [γ-32P]ATP, 30 min, room temperature, SDS-PAGE, autoradiography.
Setting [4] is: Table 3, GST fusion proteins on proteome chip, computer analysis.
The mark [5] stands for this setting: Table 4, the 25 proteins with highest signal relative to protein amount.

B1: YOR362C: GST fusion yeast protein on proteome chip (protein, UniProt P21242 2-288, looked up)
Probable proteasome subunit …: TSIGTGYDLSNSVFSPDGRNFQVEYAVKAVENGTTSIGIKCNDGVVFAVEKLITSKLLVPQKNVKIQVVDRHIGCVYSGLIPDGRHLVNRGREEAASFKKLYKTPIPIPAFADRLGQYVQAHTLYNSVRPFGVSTIFGGVDKNGAHLYMLEPSGSYWGYKGAATGKGRQSAKAELEKLVDHHPEGLSAREAVKQAAKIIYLAHEDNKEKDFELEISWCSLSETNGLHKFVKGDLLQEAIDFAQKEINGDDDEDEDDSDNVMSSDDENAPVATNANATTDQEGDIHLE
modifications: GST tag
notes: GST fusion yeast protein on proteome chip
For B1, in the assay with FHHDbf2-H6Mob1TM9 [1], the “Phosphorylation of TAP-tagged protein by Dbf2-Mob1” value is “phosphorylated by Dbf2-Mob1”. Further, the “Slide Signal (after normalization)” value in the assay with FHHDbf2-H6Mob1TM9 [2] (setting [4]) and with FHHDbf2-H6Mob1TM9 [2] (setting [5]) was 0.9895 in each case. For the same molecule, in assay [3], the “Phosphorylation of TAP-tagged protein by kinase-inactive Dbf2(N305A)-Mob1” value is “not its kinase inactive form”.

B2: YDR226W: GST fusion yeast protein on proteome chip (protein, UniProt P07170 3-222, looked up)
Adenylate kinase: SSESIRMVLIGPPGAGKGTQAPNLQERFHAAHLATGDMLRSQIAKGTQLGLEAKKIMDQGGLVSDDIMVNMIKDELTNNPACKNGFILDGFPRTIPQAEKLDQMLKEQGTPLEKAIELKVDDELLVARITGRLIHPASGRSYHKIFNPPKEDMKDDVTGEALVQRSDDNADALKKRLAAYHAQTEPIVDFYKKTGIWAGVDASQPPATVWADILNKLGKD
modifications: GST tag
notes: as for B1
Consider B2, for which the “Phosphorylation of TAP-tagged protein by Dbf2-Mob1” value with FHHDbf2-H6Mob1TM9 [1] is “phosphorylated by Dbf2-Mob1”. Further, the “Slide Signal (after normalization)” value with FHHDbf2-H6Mob1TM9 [2] (setting [4]) and with FHHDbf2-H6Mob1TM9 [2] (setting [5]) was 3.1016 in each case. Moreover, in assay [3], the “Phosphorylation of TAP-tagged protein by kinase-inactive Dbf2(N305A)-Mob1” value is “not its kinase inactive form”.
